From patent publication US20230047413A1

Target: tau seeds from spinal cords of P301S transgenic animals (human), P10636
Assay: cell-based or functional assay

Chain of tau seeds from spinal cords of P301S transgenic animals (human), P10636 (P10636 other isoform, or with tags, fused parts or gaps P301S P301S): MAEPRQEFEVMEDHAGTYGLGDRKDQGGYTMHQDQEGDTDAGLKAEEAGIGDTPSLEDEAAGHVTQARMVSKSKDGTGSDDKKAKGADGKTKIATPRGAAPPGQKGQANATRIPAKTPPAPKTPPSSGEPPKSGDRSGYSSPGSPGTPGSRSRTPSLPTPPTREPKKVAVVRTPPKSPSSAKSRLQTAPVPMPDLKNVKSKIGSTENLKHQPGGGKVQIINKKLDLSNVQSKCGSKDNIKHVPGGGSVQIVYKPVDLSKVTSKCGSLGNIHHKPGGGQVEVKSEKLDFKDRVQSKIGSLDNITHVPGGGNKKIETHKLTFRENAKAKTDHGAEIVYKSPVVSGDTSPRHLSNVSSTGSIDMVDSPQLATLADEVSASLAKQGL

B1: PT3 (mouse-hybridoma-derived antibody) (antibody, V domains shown)
VH: EVKLVESGGDLVKPGGSLKLSCAASGFTFSSYAMSWVRQNPEKRLEWVASISKGGNTYYPNSVKGRFTISRDNARNILYLQMSSLRSEDTALYYCARGWGDYGWFAYWGQVTLVTVSA
VL: DIKMTQSPSSMYASLGERVTITCKASQDINRYLNWFQQKPGKSPKTLIYRANRLLDGVPSRFSGSGSGQDYSLTISSLDYEDMGIYYCLQYDEFPLTFGDGTKLELK
modifications: here or on the partner: aggregated
- FRET/P301S spinal cord immunodepletion assay, 300 nM antibody (% of negative control): 96.2
- blocking of aggregate induction (FRET assay) at 3 nM: 30.7%
- blocking of aggregate induction (FRET assay) at 30 nM: 37%
- inhibition of K18 aggregate induction, FRET/P301S spinal cord co-incubation assay, 300 nM antibody (% of negative control): 34
